Data reported in doi:10.1101/2025.04.28.650926 (bioRxiv, 2025).
Like-named read-outs stand apart in the source and are kept apart here.

Key:
[1] = biological target: T1, HSF1-WT monomer (SEC peak 3) (human, UniProt Q00613 1-529); assay: fluorescence polarization
native gel or EMSA = biological target: the molecule itself; assay: native gel or EMSA
[2] = biological target: T1, HSF1-WT monomer (SEC peak 3); assay: fluorescence polarization; remark: listed apart in the source
HSF1-ΔTAD = HSF1-ΔTAD (human, UniProt Q00613 1-409); assay: fluorescence polarization
[3] = biological target: HSF1-WT trimer/oligomer (SEC peak 1) (human, UniProt Q00613 1-529); assay: fluorescence polarization
HSF1-ΔLZ4-TAD [4] = biological target: T2, HSF1-ΔLZ4-TAD (human, UniProt Q00613 1-383); assay: fluorescence polarization
HSF1-LZ4m (HSF1-CT) = HSF1-LZ4m (HSF1-CT) (human, UniProt Q00613 1-529, M391K;L395P;L398R); assay: fluorescence polarization
HSF1-DBD = HSF1-DBD (human, UniProt Q00613 1-123); assay: fluorescence polarization
HSF1-ΔLZ1-3 (HSF1-CM) = HSF1-ΔLZ1-3 (HSF1-CM) (human, UniProt Q00613 1-129+204-529, internal_change); assay: fluorescence polarization
HSF1-ΔLZ4-TAD [5] = biological target: T2, HSF1-ΔLZ4-TAD; assay: fluorescence polarization; remark: listed apart in the source

HSF1-WT trimer/oligomer (SEC peak 1), sequence (Q00613 whole entry): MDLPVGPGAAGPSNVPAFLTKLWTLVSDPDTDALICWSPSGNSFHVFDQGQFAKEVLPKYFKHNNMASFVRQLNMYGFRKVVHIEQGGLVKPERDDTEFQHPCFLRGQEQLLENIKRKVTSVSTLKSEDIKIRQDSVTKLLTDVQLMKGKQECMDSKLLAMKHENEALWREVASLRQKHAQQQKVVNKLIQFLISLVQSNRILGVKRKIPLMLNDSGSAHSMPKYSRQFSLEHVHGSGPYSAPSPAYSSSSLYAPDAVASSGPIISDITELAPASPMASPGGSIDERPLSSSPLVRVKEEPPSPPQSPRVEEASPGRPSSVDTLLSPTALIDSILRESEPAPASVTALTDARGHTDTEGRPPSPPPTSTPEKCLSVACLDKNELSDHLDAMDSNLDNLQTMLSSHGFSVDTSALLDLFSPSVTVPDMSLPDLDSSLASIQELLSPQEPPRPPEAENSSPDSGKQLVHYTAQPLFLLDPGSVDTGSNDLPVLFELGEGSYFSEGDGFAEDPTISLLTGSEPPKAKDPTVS

| Binder | Kd [1] [nM] | binding result (native gel or EMSA) | Kd [2] [nM] | Kd (HSF1-ΔTAD) [nM] | Kd [3] [nM] | Kd (HSF1-ΔLZ4-TAD [4]) [nM] | Kd (HSF1-LZ4m (HSF1-CT)) [nM] | Kd (HSF1-DBD) [nM] | Kd (HSF1-ΔLZ1-3 (HSF1-CM)) [nM] | Kd (HSF1-ΔLZ4-TAD [5]) [nM] |
| --- | --- | --- | --- | --- | --- | --- | --- | --- | --- | --- |
| mHSE (mutant HSE) (dsDNA) DNA 1: CCTGGCGTAGTCCCCGCCTGGC DNA 2: GCCAGGCGGGGACTACGCCAGG | 84.8 ± 14.2 |  |  |  |  |  |  |  |  |  |
| HSF1-LZ4mutant (LZ4m), constitutively trimeric/ oligomeric (CT) (natural protein, human, UniProt Q00613 1-529, looked up) MDLPVGPGAAGPSNVPAFLTKLWTLVSDPDTDALICWSPSGNSFHVFDQGQFAKEVLPKYFKHNNMASFVRQLNMYGFRKVVHIEQGGLVKPERDDTEFQHPCFLRGQEQLLENIKRKVTSVSTLKSEDIKIRQDSVTKLLTDVQLMKGKQECMDSKLLAMKHENEALWREVASLRQKHAQQQKVVNKLIQFLISLVQSNRILGVKRKIPLMLNDSGSAHSMPKYSRQFSLEHVHGSGPYSAPSPAYSSSSLYAPDAVASSGPIISDITELAPASPMASPGGSIDERPLSSSPLVRVKEEPPSPPQSPRVEEASPGRPSSVDTLLSPTALIDSILRESEPAPASVTALTDARGHTDTEGRPPSPPPTSTPEKCLSVACLDKNELSDHLDAKDSNPDNRQTMLSSHGFSVDTSALLDLFSPSVTVPDMSLPDLDSSLASIQELLSPQEPPRPPEAENSSPDSGKQLVHYTAQPLFLLDPGSVDTGSNDLPVLFELGEGSYFSEGDGFAEDPTISLLTGSEPPKAKDPTVS |  | binds |  |  |  |  |  |  |  |  |
| HSE (canonical three-site) (dsDNA) DNA 1: CCTGGAATATTCCCGAACTGGC DNA 2: GCCAGTTCGGGAATATTCCAGG | 7.98 ± 1.43 |  | 56.7 ± 4.62 | 60.3 ± 1.13 | 17.1 ± 6.28 | 22.6 ± 1.36 | 25.1 ± 8.09 | 85.3 ± 6.29 | 6.57 ± 1.39 | 12.9 ± 0.335 |
